Measurements from patent publication US20230189818A1, “RNA-BASED CONTROL OF BOTRYTIS” (priority 2021, published 2023).

B1: GS686: dsRNA trigger targeting B. cinerea Bcrrp1 (XM_001550365.2); trigger SEQ ID NO 17, RNA 29, reverse complement 41 (nucleic acid, listed as Botrytis cinerea)
sense: CCCCUCCACCCAAGCACCUUUCUACACCGGAUUCUGGGAAAUCAUGUCCAAAGAAUGGGAACGCAUUGAUGUGCUGCGCAUGGAGAAAUUCCUGCUGCUAGUGAGACGCUAUUUGGCAGCUGGUUUUGAGGUUGUGGUAUCCAGCUCUUCCGCACCUGCGGGAAAGAAAAACAAGACGAAAGCUUCGAAGAAAGUGAUUUCGGAAUCCGGAGAGCAGGUAUUAGAAGUCCUAUCUUCCAUUCCCUGUGGUUCGGGCCCCGAUGCGCAACGCACACCGAAUGGAAUGCGCUUCCACGUAAUCGAUAUCUGGAUCGACGAGCUUGAGAAACUGGGUGUGAUCGACGCAGCGAAGGAGAGUGAAGAGGGCGCUGAGAAAUUAGAGAAAUUACUGGAGCCGUUGAGGAAAUUGGGAAAGGAGAGCAUUAAUAAGACGGUCAGGAAUAAGUGUAAGGAGGC
antisense: GCCUCCUUACACUUAUUCCUGACCGUCUUAUUAAUGCUCUCCUUUCCCAAUUUCCUCAACGGCUCCAGUAAUUUCUCUAAUUUCUCAGCGCCCUCUUCACUCUCCUUCGCUGCGUCGAUCACACCCAGUUUCUCAAGCUCGUCGAUCCAGAUAUCGAUUACGUGGAAGCGCAUUCCAUUCGGUGUGCGUUGCGCAUCGGGGCCCGAACCACAGGGAAUGGAAGAUAGGACUUCUAAUACCUGCUCUCCGGAUUCCGAAAUCACUUUCUUCGAAGCUUUCGUCUUGUUUUUCUUUCCCGCAGGUGCGGAAGAGCUGGAUACCACAACCUCAAAACCAGCUGCCAAAUAGCGUCUCACUAGCAGCAGGAAUUUCUCCAUGCGCAGCACAUCAAUGCGUUCCCAUUCUUUGGACAUGAUUUCCCAGAAUCCGGUGUAGAAAGGUGCUUGGGUGGAGGGG
B2: GS728: dsRNA trigger targeting B. cinerea XM_024691746.1; trigger SEQ ID NO 18, RNA 30, reverse complement 42 (nucleic acid, listed as Botrytis cinerea)
sense: CACAAGAAGCAUGGGGUAUGAAGAGAUAAGUUGUGGCUGGUGAACAACUAAAUCGACAUUUUCCGUCCCCACAGCACCUUUCGAACACUGAAUUCAAUUAAUUAUACACUGUUCCAGUAUCCACUUCCACUUCCACUCCCACAAAACAUACAAUACUACGAUAAUACGAUUUUACGAUAACGUCCAGCCUUGAGGACAACAAGUCAGAUGAAAAUCACGAGAUGGCAUUGUUUUUGAUGUUAGUAAAUGCUAUACCGACGGUAAUCGGCACUGCUGAAGCAUUAGAUGUUCAGAAGAAGGAAGAUUUGGCCCAGAAGCACAAGGCAAAGUUUUUCAUGACGGCGAAUUUUGCUUUGGAUGGAAAGGUUGCUCAUGAAAAAGAAUCACAGGUCGUCCUACGCGAUAACAGGAUGUACUUAAACCACCCAGAUGCGCCGAAAGAAGGACAUCGAUUUUGUGGUUACUAUUUCAUGUAUC
antisense: GAUACAUGAAAUAGUAACCACAAAAUCGAUGUCCUUCUUUCGGCGCAUCUGGGUGGUUUAAGUACAUCCUGUUAUCGCGUAGGACGACCUGUGAUUCUUUUUCAUGAGCAACCUUUCCAUCCAAAGCAAAAUUCGCCGUCAUGAAAAACUUUGCCUUGUGCUUCUGGGCCAAAUCUUCCUUCUUCUGAACAUCUAAUGCUUCAGCAGUGCCGAUUACCGUCGGUAUAGCAUUUACUAACAUCAAAAACAAUGCCAUCUCGUGAUUUUCAUCUGACUUGUUGUCCUCAAGGCUGGACGUUAUCGUAAAAUCGUAUUAUCGUAGUAUUGUAUGUUUUGUGGGAGUGGAAGUGGAAGUGGAUACUGGAACAGUGUAUAAUUAAUUGAAUUCAGUGUUCGAAAGGUGCUGUGGGGACGGAAAAUGUCGAUUUAGUUGUUCACCAGCCACAACUUAUCUCUUCAUACCCCAUGCUUCUUGUG

Assays:
[1] = system: Botrytis cinerea conidia; assay: In vitro liquid-based assay (fungal biomass, 96-well plates, Cytation 5); assay type: cell-based; conditions: co-incubated with conidia for three days, vs untreated control
In short: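 Conidia (5000/mL stock) were co-incubated with dsRNA or control treatments in pH 6.0 minimal medium. Incubation ran 72 h at 23 °C, shaking at 120 rpm under continuous light. Fungal biomass was measured by brightfield imaging (8 slices per well, 2.5× lens) and expressed as average reduction versus control.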

[2] = system: Botrytis cinerea B05.10 isolate; assay: Greenhouse whole plant assay (tomato 'Lanai', disease severity); assay type: in vivo; conditions: final rating day (rating #3), two runs, three-week-old 'Lanai' tomato plant
Method: Plant Tissue: Tomato seedlings, variety “Lanai”, were seeded then thinned to one plant per pot in an 18 cell tray. […] Plants were grown at a 23° C./17° C. day/night temperature with 10 hours of light each 24-hour period. The RH was ambient and plants were fertilized two times a day every day except for Sunday when they received only water. Plants were grown using Fafard brand medium (70-80% sphagnum peat moss, perlite, vermiculite, dolomite limestone and watering agent) for the entire experiment.
Fungal culture. A Botrytis cinerea B05.10 isolate was maintained, and spores were harvested as previously described for detached leaf assays, except a grape juice additive was not used for inoculum preparation.
Treatment of plants. Whole tomato plants were treated ˜24 hours before inoculation using the spray booth. A 0.07% Silwet L-77 solution was used as a spreader and added for a 0.07% final volume in water (Silwet L-77 brand Phyto Technology Laboratories, S7777 Lot #14D7777001 F). The spray booth deck was set to 20″ above the plant canopy and a twinjet 8002EVS nozzle with 100 mesh filter placed into the spray mechanism. The spray boom was calibrated before treatment application with specs as follows: 50 GPA rate, 1.25 MPH speed, 6′ spray length, single pass, and at 45 psi to get a catch of 133 mL in 10 seconds (+/−6 mL). Each treatment was replicated ten times for each experimental run.
Inoculation. Plants were inoculated using a mist-o-matic applicator, which is pressurized by manual pumping. The inoculum suspension was poured into the mist-o-matic immediately before inoculation in the GH space. The containers were only filled half-way and inoculum was applied evenly to the surface of all foliage with even coverage.
Incubation. Plants were incubated inside of a 40″ tall humidity chamber supported by PVC pipe and covered in 3M translucent plastic. A humidifier was inside the chamber and set to low and continuous humidity (filled with tap water). The temperature was D:24-20° C./N:20-18° C. with 15 hours of light, of which 9 hours was with supplemental lighting. RH was ambient and watering occurred everyday by sub-irrigation with the bench being flooded for 10 minutes before draining.
Rating. Tomato plants were rated three times during the two-week experiment with rating starting four days post-inoculation and occurring every three to four days after the initial rating date. Plants were rated for the number of lesions and disease severity, which is the percentage of the plant that was symptomatic including necrotic lesions, pathogen sporulation, and chlorosis.
Data analysis. […] Percent disease severity (%DS) was determined by the percent area of the tomato foliage with symptoms including lesions, chlorosis, necrosis, and wilting. Disease severity was rated at three dates (Rating #) over the 12-day test period. Treatments were compared to the untreated, inoculated control and a chemical standard. Statistical analysis was done using SAS JMP version 13.2.1 with treatments compared to the untreated, inoculated control and a chemical standard using Tukey-Kramer and student's T tests.

[3] = system: Botrytis cinerea isolate (B05.10); assay: Detached leaf assay (tomato leaflets, lesion size); assay type: in vivo; conditions: five days post inoculation, vs untreated inoculated control
In short: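 Tomato (Brandywine) detached lateral leaflets were sprayed with treatment in 0.03% Silwet L-77 24 h before inoculation. Two 10 μL drops of 1×10^5 conidia/mL in 7% grape juice were applied per leaflet, which was then incubated at 23 °C, ~75% RH, 12/12 light. Lesion diameter was measured at 5 DPI against the untreated inoculated control, ten replicates.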

| Molecule | Average % Reduction in Biomass ([1]; 25 ppm dsRNA) [%] | Average % Reduction in Biomass ([1]; 150 ppm dsRNA) [%] | % control ([2]; 8 g ai/ha) [%] | % control ([2]; 25 g ai/ha) [%] | Average % Reduction in Lesion Size ([3]; 30 ppm) [%] | Average % Reduction in Lesion Size ([3]; 50 ppm) [%] |
| --- | --- | --- | --- | --- | --- | --- |
| B1 | 16 | 37 | 31 | 14 | 39.61 | 33.29 |
| B2 | 20 | 35 | 27 | 37 | 20.16 | 16.48 |
